Reference: US20260250402A1 (C O INMAGENE PTE, published 2026)

T1: human IL-7Ra expressed on CHOK1-human IL-7Ra cells (human, UniProt P16871 21-459)
T1 construct: also called human IL-7Ra expressed on cell membrane; CD127
T1 sequence: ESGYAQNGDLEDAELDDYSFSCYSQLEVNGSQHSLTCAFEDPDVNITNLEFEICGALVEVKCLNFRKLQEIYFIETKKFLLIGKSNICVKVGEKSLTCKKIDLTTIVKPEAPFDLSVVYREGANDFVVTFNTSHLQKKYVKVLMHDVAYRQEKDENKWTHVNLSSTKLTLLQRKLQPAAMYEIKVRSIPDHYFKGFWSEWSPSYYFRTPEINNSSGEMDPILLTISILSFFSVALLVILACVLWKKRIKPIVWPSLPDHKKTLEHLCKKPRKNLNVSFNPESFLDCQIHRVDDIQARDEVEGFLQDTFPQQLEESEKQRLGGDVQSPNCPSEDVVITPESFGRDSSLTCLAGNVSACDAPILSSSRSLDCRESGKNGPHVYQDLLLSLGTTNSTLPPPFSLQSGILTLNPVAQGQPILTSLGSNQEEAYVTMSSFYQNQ

T2: cynomolgus IL-7Ra expressed on CHOK1-cyno IL-7Ra cells (cynomolgus, UniProt Q38IC7 21-459)
T2 sequence: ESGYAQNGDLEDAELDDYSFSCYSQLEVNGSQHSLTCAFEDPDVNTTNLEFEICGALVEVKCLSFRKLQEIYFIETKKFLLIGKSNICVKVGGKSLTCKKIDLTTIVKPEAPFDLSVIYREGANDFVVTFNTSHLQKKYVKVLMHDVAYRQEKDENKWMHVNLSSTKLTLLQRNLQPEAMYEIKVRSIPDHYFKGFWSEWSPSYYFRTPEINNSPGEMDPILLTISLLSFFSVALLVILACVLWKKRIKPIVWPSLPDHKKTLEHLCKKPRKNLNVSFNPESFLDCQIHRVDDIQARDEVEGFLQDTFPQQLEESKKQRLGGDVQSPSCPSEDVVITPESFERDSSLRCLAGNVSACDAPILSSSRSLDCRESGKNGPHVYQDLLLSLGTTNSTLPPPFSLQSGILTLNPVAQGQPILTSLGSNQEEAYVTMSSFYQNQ

T3: Human his-tag IL-7Ra protein (human, UniProt P16871 21-239)
T3 construct: Construct not described; Position of the tag unknown; also called IL-7Ra (Biacore analyte); not shown: his tag
T3 sequence: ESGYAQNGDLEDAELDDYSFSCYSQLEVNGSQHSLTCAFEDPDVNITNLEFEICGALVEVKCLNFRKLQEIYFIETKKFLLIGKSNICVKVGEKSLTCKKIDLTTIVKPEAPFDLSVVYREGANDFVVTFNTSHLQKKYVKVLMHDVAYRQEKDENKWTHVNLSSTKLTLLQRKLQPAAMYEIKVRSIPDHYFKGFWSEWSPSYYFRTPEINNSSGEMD


Tests used:
[1] = target: T1, human IL-7Ra expressed on CHOK1-human …; test: flow cytometry, CHOK1-human IL-7Ra cells
[2] = target: T2, cynomolgus IL-7Ra expressed on …; test: flow cytometry, CHOK1-cyno IL-7Ra cells
[3] = target: T3, Human his-tag IL-7Ra protein; test: SPR Biacore 8K, antibody Fc-captured, human his-tag IL-7Ra analyte, 1:1 model

Row | EC50 [1] | Top (MFI) [1] | EC50 [2] | Top (MFI) [2] | Kd [3] | koff [3] | kon [3] | Binder
1 | 0.188 µg/mL | 22300 MFI | 0.207 µg/mL | 16900 MFI | 214 pM | 0.000238 s⁻¹ | 1.11e+06 M⁻¹ s⁻¹ | HuAb005 (antibody, V domains shown, Humanized version of cmAb011; also called humanized VL1 / humanized VH2) VH: QVQLVQSGAEVKKPGASVKVSCKASGYRFTDYELHWVRQAPGQGLEWMGGIDPKTGGTAYNQKFKGRVTMTSDRSTSTVYMELSSLRSEDTAVYYCARSGGRWYFDVWGQGTTVTVSS VL: DIVLTQSPASLAVSPGQRATITCRTSESVSIHLLHLMHWYQQKPGQPPKLLIYGASNLESGVPARFSGSGSGTDFTLTINPVEAEDTANYYCQQSIKDPYTFGGGTKVEIK
2 | 0.113 µg/mL | 23700 MFI | 0.128 µg/mL | 17100 MFI | – | – | – | HuAb016 (antibody, V domains shown, Humanized version of cmAb011; also called humanized VL4 / humanized VH4) VH: QVQLVQSGAEVKKPGASVKVSCKASGYRFTDYELHWVRQAPGQGLEWMGGIDPKTGGTAYNQKFKGKVTLTSDRSTSTVYMELSSLRSEDTAVYYCARSGGRWYFDVWGQGTTVTVSS VL: DIVLTQSPDSLAVSLGERATINCRTSESVSIHLLHLMHWYQQKPGQPPKLLIYGASNLESGVPDRFSGSGSETDFTLTISSLQAEDVAVYYCQQSIKDPYTFGGGTKVEIK
3 | 0.158 µg/mL | 24100 MFI | 0.189 µg/mL | 17400 MFI | – | – | – | HuAb015 (antibody, V domains shown, Humanized version of cmAb011; also called humanized VL3 / humanized VH4) VH: QVQLVQSGAEVKKPGASVKVSCKASGYRFTDYELHWVRQAPGQGLEWMGGIDPKTGGTAYNQKFKGKVTLTSDRSTSTVYMELSSLRSEDTAVYYCARSGGRWYFDVWGQGTTVTVSS VL: DIVMTQSPDSLAVSLGERATINCRTSESVSIHLLHLMHWYQQKPGQPPKLLIYGASNLESGVPDRFSGSGSGTDFTLTISSLQAEDVAVYYCQQSIKDPYTFGGGTKVEIK
4 | 0.256 µg/mL | 20500 MFI | 0.241 µg/mL | 17700 MFI | – | – | – | HuAb011 (antibody, V domains shown, Humanized version of cmAb011; also called humanized VL3 / humanized VH3) VH: QVQLVQSGAEVKKPGASVKVSCKASGYRFTDYELHWVKQAPGQGLEWIGGIDPKTGGTAYNQKFKGRVTMTSDRSTSTVYMELSSLRSEDTAVYYCARSGGRWYFDVWGQGTTVTVSS VL: DIVMTQSPDSLAVSLGERATINCRTSESVSIHLLHLMHWYQQKPGQPPKLLIYGASNLESGVPDRFSGSGSGTDFTLTISSLQAEDVAVYYCQQSIKDPYTFGGGTKVEIK
5 | 0.536 µg/mL | 22800 MFI | 0.687 µg/mL | 18000 MFI | – | – | – | HuAb019 (antibody, V domains shown, Humanized version of cmAb011; also called humanized VL3 / humanized VH5) VH: QVQLVQSGAEVKKPGASVKVSCKASGYRFTDYELHWVKQAPGQGLEWIGGIDPKTGGTAYNQKFKGKVTLTSDRSTSTVYMELSSLRSEDTAVYYCARSGGRWYFDVWGQGTTVTVSS VL: DIVMTQSPDSLAVSLGERATINCRTSESVSIHLLHLMHWYQQKPGQPPKLLIYGASNLESGVPDRFSGSGSGTDFTLTISSLQAEDVAVYYCQQSIKDPYTFGGGTKVEIK
6 | 0.159 µg/mL | 20300 MFI | 0.165 µg/mL | 17000 MFI | – | – | – | HuAb012 (antibody, V domains shown, Humanized version of cmAb011; also called humanized VL4 / humanized VH3) VH: QVQLVQSGAEVKKPGASVKVSCKASGYRFTDYELHWVKQAPGQGLEWIGGIDPKTGGTAYNQKFKGRVTMTSDRSTSTVYMELSSLRSEDTAVYYCARSGGRWYFDVWGQGTTVTVSS VL: DIVLTQSPDSLAVSLGERATINCRTSESVSIHLLHLMHWYQQKPGQPPKLLIYGASNLESGVPDRFSGSGSETDFTLTISSLQAEDVAVYYCQQSIKDPYTFGGGTKVEIK
7 | 0.115 µg/mL | 22500 MFI | 0.124 µg/mL | 17600 MFI | – | – | – | HuAb020 (antibody, V domains shown, Humanized version of cmAb011; also called humanized VL4 / humanized VH5) VH: QVQLVQSGAEVKKPGASVKVSCKASGYRFTDYELHWVKQAPGQGLEWIGGIDPKTGGTAYNQKFKGKVTLTSDRSTSTVYMELSSLRSEDTAVYYCARSGGRWYFDVWGQGTTVTVSS VL: DIVLTQSPDSLAVSLGERATINCRTSESVSIHLLHLMHWYQQKPGQPPKLLIYGASNLESGVPDRFSGSGSETDFTLTISSLQAEDVAVYYCQQSIKDPYTFGGGTKVEIK
8 | 0.115 µg/mL | 22600 MFI | 0.126 µg/mL | 15900 MFI | – | – | – | HuAb002 (antibody, V domains shown, Humanized version of cmAb011; also called humanized VL2 / humanized VH1) VH: QVQLVQSGAEVKKPGASVKVSCKASGYRFTDYELHWVRQAPGQGLEWMGGIDPKTGGTAYNQKFKGRVTMTRDTSTSTVYMELSSLRSEDTAVYYCARSGGRWYFDVWGQGTTVTVSS VL: DIVLTQSPASLAVSPGQRATITCRTSESVSIHLLHLMHWYQQKPGQPPKLLIYGASNLESGVPARFSGSGSETDFTLTINPVEAEDTANYYCQQSIKDPYTFGGGTKVEIK
9 | 0.177 µg/mL | 21600 MFI | 0.191 µg/mL | 16700 MFI | – | – | – | HuAb006 (antibody, V domains shown, Humanized version of cmAb011; also called humanized VL2 / humanized VH2) VH: QVQLVQSGAEVKKPGASVKVSCKASGYRFTDYELHWVRQAPGQGLEWMGGIDPKTGGTAYNQKFKGRVTMTSDRSTSTVYMELSSLRSEDTAVYYCARSGGRWYFDVWGQGTTVTVSS VL: DIVLTQSPASLAVSPGQRATITCRTSESVSIHLLHLMHWYQQKPGQPPKLLIYGASNLESGVPARFSGSGSETDFTLTINPVEAEDTANYYCQQSIKDPYTFGGGTKVEIK
10 | 0.0778 µg/mL | 24600 MFI | 0.0891 µg/mL | 17700 MFI | – | – | – | HuAb017 (antibody, V domains shown, Humanized version of cmAb011; also called humanized VL1 / humanized VH5) VH: QVQLVQSGAEVKKPGASVKVSCKASGYRFTDYELHWVKQAPGQGLEWIGGIDPKTGGTAYNQKFKGKVTLTSDRSTSTVYMELSSLRSEDTAVYYCARSGGRWYFDVWGQGTTVTVSS VL: DIVLTQSPASLAVSPGQRATITCRTSESVSIHLLHLMHWYQQKPGQPPKLLIYGASNLESGVPARFSGSGSGTDFTLTINPVEAEDTANYYCQQSIKDPYTFGGGTKVEIK
11 | 0.209 µg/mL | 21100 MFI | 0.244 µg/mL | 17100 MFI | – | – | – | HuAb007 (antibody, V domains shown, Humanized version of cmAb011; also called humanized VL3 / humanized VH2) VH: QVQLVQSGAEVKKPGASVKVSCKASGYRFTDYELHWVRQAPGQGLEWMGGIDPKTGGTAYNQKFKGRVTMTSDRSTSTVYMELSSLRSEDTAVYYCARSGGRWYFDVWGQGTTVTVSS VL: DIVMTQSPDSLAVSLGERATINCRTSESVSIHLLHLMHWYQQKPGQPPKLLIYGASNLESGVPDRFSGSGSGTDFTLTISSLQAEDVAVYYCQQSIKDPYTFGGGTKVEIK
12 | 0.152 µg/mL | 20600 MFI | 0.175 µg/mL | 17500 MFI | – | – | – | HuAb010 (antibody, V domains shown, Humanized version of cmAb011; also called humanized VL2 / humanized VH3) VH: QVQLVQSGAEVKKPGASVKVSCKASGYRFTDYELHWVKQAPGQGLEWIGGIDPKTGGTAYNQKFKGRVTMTSDRSTSTVYMELSSLRSEDTAVYYCARSGGRWYFDVWGQGTTVTVSS VL: DIVLTQSPASLAVSPGQRATITCRTSESVSIHLLHLMHWYQQKPGQPPKLLIYGASNLESGVPARFSGSGSETDFTLTINPVEAEDTANYYCQQSIKDPYTFGGGTKVEIK
13 | 0.0529 µg/mL | 23900 MFI | 0.0534 µg/mL | 16700 MFI | – | – | – | HuAb014 (antibody, V domains shown, Humanized version of cmAb011; also called humanized VL2 / humanized VH4) VH: QVQLVQSGAEVKKPGASVKVSCKASGYRFTDYELHWVRQAPGQGLEWMGGIDPKTGGTAYNQKFKGKVTLTSDRSTSTVYMELSSLRSEDTAVYYCARSGGRWYFDVWGQGTTVTVSS VL: DIVLTQSPASLAVSPGQRATITCRTSESVSIHLLHLMHWYQQKPGQPPKLLIYGASNLESGVPARFSGSGSETDFTLTINPVEAEDTANYYCQQSIKDPYTFGGGTKVEIK
14 | 0.105 µg/mL | 24100 MFI | 0.0988 µg/mL | 18400 MFI | – | – | – | HuAb018 (antibody, V domains shown, Humanized version of cmAb011; also called humanized VL2 / humanized VH5) VH: QVQLVQSGAEVKKPGASVKVSCKASGYRFTDYELHWVKQAPGQGLEWIGGIDPKTGGTAYNQKFKGKVTLTSDRSTSTVYMELSSLRSEDTAVYYCARSGGRWYFDVWGQGTTVTVSS VL: DIVLTQSPASLAVSPGQRATITCRTSESVSIHLLHLMHWYQQKPGQPPKLLIYGASNLESGVPARFSGSGSETDFTLTINPVEAEDTANYYCQQSIKDPYTFGGGTKVEIK
15 | 0.17 µg/mL | 22300 MFI | 0.167 µg/mL | 16000 MFI | – | – | – | HuAb001 (antibody, V domains shown, Humanized version of cmAb011; also called humanized VL1 / humanized VH1) VH: QVQLVQSGAEVKKPGASVKVSCKASGYRFTDYELHWVRQAPGQGLEWMGGIDPKTGGTAYNQKFKGRVTMTRDTSTSTVYMELSSLRSEDTAVYYCARSGGRWYFDVWGQGTTVTVSS VL: DIVLTQSPASLAVSPGQRATITCRTSESVSIHLLHLMHWYQQKPGQPPKLLIYGASNLESGVPARFSGSGSGTDFTLTINPVEAEDTANYYCQQSIKDPYTFGGGTKVEIK
